Measurements as given in patent publication US8889621B2, “Inhibiting binding of FGF23 to the binary FGFR-Klotho complex for the treatment of hypophosphatemia” (New York University, priority 2009, dated 2014).
Peptide text beside a SMILES is read from it.

B1: FGF23^28-251: human FGF23 (A28 to I251), bioactive full-length ligand expressed in E. coli (protein, listed as Homo sapiens)
chain: ASPLLGSSWGGLIHLYTATARNSYHLQIHKNGHVDGAPHQTIYSALMIRSEDAGFVVITGVMSRRYLCMDFRGNIFGSHYFDPENCRFQHQTLENGYDVYHSPQYHFLVSLGRAKRAFLPGMNPPPYSQFLSRRNEIPLIHFNTPIPRRHTRSAEDDSERDPLNVLKPRARMTPAPASCSQELPSAEDNSPMASDPLGVVRGGRVNTHAGGTGPEGCRPFAKFI
B2: FGF23^180-251: 72-amino acid C-terminal tail of human FGF23 (S180 to I251), expressed in E. coli (protein, listed as Homo sapiens)
chain: SAEDDSERDPLNVLKPRARMTPAPASCSQELPSAEDNSPMASDPLGVVRGGRVNTHAGGTGPEGCRPFAKFI

Target: T1, binary FGFR1c-Klotho complex (UniProt O35082+P11362)
T1 construct: The ectodomain of murine Klotho (A35 to K982) was purified from culture media; FLAG (C); made in house; host or cells: E. coli (FGFR1c, FGF23); HEK293 (Klotho ectodomain)
T1 sequence (P11362 142-365): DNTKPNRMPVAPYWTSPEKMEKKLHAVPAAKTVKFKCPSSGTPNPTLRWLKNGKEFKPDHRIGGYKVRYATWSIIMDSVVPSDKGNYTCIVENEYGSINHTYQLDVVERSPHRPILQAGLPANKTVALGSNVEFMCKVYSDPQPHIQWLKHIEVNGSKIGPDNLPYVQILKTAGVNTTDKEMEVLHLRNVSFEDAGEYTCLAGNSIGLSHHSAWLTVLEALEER
T1 sequence (O35082 35-982): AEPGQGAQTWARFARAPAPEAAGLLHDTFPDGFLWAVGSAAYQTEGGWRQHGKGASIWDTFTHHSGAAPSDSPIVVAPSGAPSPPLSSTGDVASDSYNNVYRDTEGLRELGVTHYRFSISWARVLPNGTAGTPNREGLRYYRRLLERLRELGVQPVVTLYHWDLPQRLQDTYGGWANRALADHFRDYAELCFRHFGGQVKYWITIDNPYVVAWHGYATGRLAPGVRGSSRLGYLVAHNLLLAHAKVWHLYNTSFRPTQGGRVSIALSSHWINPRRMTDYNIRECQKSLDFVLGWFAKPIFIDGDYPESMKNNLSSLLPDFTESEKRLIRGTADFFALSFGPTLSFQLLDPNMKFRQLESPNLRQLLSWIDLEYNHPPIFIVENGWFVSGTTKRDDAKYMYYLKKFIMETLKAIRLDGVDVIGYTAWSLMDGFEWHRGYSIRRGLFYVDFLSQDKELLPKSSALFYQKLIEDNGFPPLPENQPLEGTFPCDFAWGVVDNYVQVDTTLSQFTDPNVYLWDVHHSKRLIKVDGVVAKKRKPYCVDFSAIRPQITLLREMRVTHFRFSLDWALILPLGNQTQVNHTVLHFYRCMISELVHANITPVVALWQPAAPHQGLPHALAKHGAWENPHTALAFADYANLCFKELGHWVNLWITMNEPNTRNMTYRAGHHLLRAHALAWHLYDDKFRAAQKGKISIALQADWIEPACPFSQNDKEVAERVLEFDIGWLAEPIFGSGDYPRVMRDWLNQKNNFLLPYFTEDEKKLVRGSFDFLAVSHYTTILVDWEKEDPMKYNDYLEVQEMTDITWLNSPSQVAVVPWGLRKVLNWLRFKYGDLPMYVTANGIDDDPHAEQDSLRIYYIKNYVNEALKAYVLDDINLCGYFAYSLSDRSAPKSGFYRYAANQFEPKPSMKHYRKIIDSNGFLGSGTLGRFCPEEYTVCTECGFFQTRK
Test: SPR competition: FGFR1c-Klotho binding to immobilized FGF23^28-251
Design: species or system human FGFR1c, murine Klotho
Settings: for inhibition of FGFR1c-Klotho binding to immobilized FGF23^28-251: FGF21^168-209 at molar ratios of 6:1 and 10:1; for rightward shift of dose-response curve compared to full-length FGF23: FIG. 3D
Protocol: A variety of interaction or binding assays can be used to determine that an agent specifically binds the binary FGFR-Klotho complex, such as the SPR interaction analysis described below. One aspect of the present invention utilizes SPR analysis of FGF23 protein/peptide binding to the binary FGFR-Klotho complex. The SPR analysis involved FGF23 protein/peptide immobilization by amine coupling on flow channels of a chip. Proteins were injected over the chip at a flow rate of 50 μl min^−1, and at the end of each protein injection (180 s), HBS-EP buffer (10 mM HEPES-NaOH, pH 7.4, 150 mM NaCl, 3 mM EDTA, 0.005% (v/v) polysorbate 20; 50 μl min^−1) was flowed over the chip to monitor dissociation for 180 s. The chip surface was then regenerated by injecting 50 μl of 2.0 M NaCl in 10 mM sodium acetate, pH 4.5. […] For each protein injection over a FGF23 protein/peptide chip, the nonspecific responses from the FHF1B control flow channel were subtracted from the responses recorded for the flow channel onto which FGF23 protein/peptide was immobilized. To analyze FGF23 binding to the binary FGFR1c-Klotho complex, FGF23^28-251 was coupled to a chip, and increasing concentrations of 1:1 complex of the ectodomains of FGFR1c and Klotho in HBS-EP buffer were passed over the chip. To measure binding of the C-terminal tail of FGF23 to the binary FGFR1c-Klotho complex, FGF23^180-251 was immobilized on a chip, and increasing concentrations of 1:1 complex of the ectodomains of FGFR1c and Klotho in HBS-EP buffer were passed over the chip. To examine whether the C-terminal tail of FGF23 can compete with full-length FGF23 for binding to the binary FGFR1c-Klotho complex, FGF23^28-251 was immobilized on a chip. Increasing concentrations of FGF23^180-251 were mixed with a fixed concentration of 1:1 complex of the ectodomains of FGFR1c and Klotho in HBS-EP buffer, and the mixtures were passed over the chip. As a control, competition of FGF23 in solution with immobilized FGF23 for binding to the binary FGFR1c-Klotho complex was studied. Increasing concentrations of FGF23^28-251 were mixed with a fixed concentration of 1:1 complex of the ectodomains of FGFR1c and Klotho in HBS-EP buffer, and the mixtures were passed over the FGF23 chip. Competition of the FGF23 C-terminal tail peptide with full-length FGF23 for binding to the binary FGFR1c-Klotho complex was also studied using the “reverse” SPR assay format, where FGF23^180-251 was immobilized on a chip and mixtures of a fixed concentration of 1:1 complex of the ectodomains of FGFR1c and Klotho with increasing concentrations of FGF23^28-251 were passed over the chip. As a control, competition of FGF23 C-terminal tail peptide in solution with immobilized FGF23 C-terminal tail peptide for binding to the binary FGFR1c-Klotho complex was analyzed. Increasing concentrations of FGF23^180-251 were mixed with a fixed concentration of 1:1 complex of the ectodomains of FGFR1c and Klotho in HBS-EP buffer, and the mixtures were passed over the FGF23^180-251 chip. To verify the specificity of the interaction between the FGF23 C-terminal tail and the FGFR1c-Klotho complex, FGF23^28-251 was immobilized on a chip. Increasing concentrations of FGF21^168-209 were mixed with a fixed concentration of 1:1 complex of the ectodomains of FGFR1c and Klotho in HBS-EP buffer, and the mixtures were passed over the chip. In addition, the ability of the FGF23 C-terminal tail peptide to interfere with binary complex formation between βKlotho and either FGF19 or FGF21 was tested, as was its ability to interfere with ternary complex formation between βKlotho, FGFR, and either FGF19 or FGF21. FGF19^23-216 and FGF21^29-209 were immobilized on two flow channels of a chip. FGF23^180-251 and the ectodomain of βKlotho were mixed at a molar ratio of 2:1, and the mixture was injected over the chip. Next, FGF23^180-251 and the 1:1 complex of the ectodomains of FGFR1c and βKlotho were mixed at a molar ratio of 10:1, and the mixture was passed over the FGF19/FGF21 chip. […]

| Molecule | inhibition of FGFR1c-Klotho binding to immobilized FGF23^28-251 | molar excess over FGFR1c-Klotho complex at half-maximum inhibition of FGFR1c-Klotho binding to FGF23^28-251 (FGF23^28-251 chip) [fold molar excess] | rightward shift of dose-response curve compared to full-length FGF23 | amount relative to FGFR1c-Klotho complex yielding 50% inhibition of binding to immobilized FGF23^28-251 (FGF23^28-251 chip, control) |
| --- | --- | --- | --- | --- |
| CSCC[C@H](NC(=O)[C@H](CCCNC(=N)N)NC(=O)[C@H](C)NC(=O)[C@H](CCCNC(=N)N)NC(=O)[C@@H]1CCCN1C(=O)[C@H](CCCCN)NC(=O)[C@H](CC(C)C)NC(=O)[C@@H](NC(=O)[C@H](CC(N)=O)NC(=O)[C@H](CC(C)C)NC(=O)[C@@H]1CCCN1C(=O)[C@H](CC(=O)O)NC(=O)[C@H](CCCNC(=N)N)NC(=O)[C@H](CCC(=O)O)NC(=O)[C@H](CO)NC(=O)[C@H](CC(=O)O)NC(=O)[C@H](CC(=O)O)NC(=O)[C@H](CCC(=O)O)NC(=O)[C@H](C)NC(=O)[C@@H](N)CO)C(C)C)C(=O)N[C@H](C(=O)N1CCC[C@H]1C(=O)N[C@@H](C)C(=O)N1CCC[C@H]1C(=O)N[C@@H](C)C(=O)N[C@@H](CO)C(=O)O)[C@@H](C)O [FGF23^180-205] (H-SAEDDSERDPLNVLKPRARMTPAPAS-OH; N-terminus and C-terminus assumed) | able to compete, in a dose-dependent fashion | 5.7 | ~6 fold | – |
| B1 | – | – | – | less than an equimolar amount |
| B2 | competed, in a dose-dependent fashion | 3.3 | about 3 fold | – |
